From patent US20200149021, “SYSTEM AND METHOD FOR GENOME EDITING” (INSTITUTE OF ZOOLOGY, CHINESE ACADEMY OF SCIENCES, published 2020) come the findings set out here.

The series concerns the target T1, PrCpf1 (Pseudobutyrivibrio ruminis).
T1 chain: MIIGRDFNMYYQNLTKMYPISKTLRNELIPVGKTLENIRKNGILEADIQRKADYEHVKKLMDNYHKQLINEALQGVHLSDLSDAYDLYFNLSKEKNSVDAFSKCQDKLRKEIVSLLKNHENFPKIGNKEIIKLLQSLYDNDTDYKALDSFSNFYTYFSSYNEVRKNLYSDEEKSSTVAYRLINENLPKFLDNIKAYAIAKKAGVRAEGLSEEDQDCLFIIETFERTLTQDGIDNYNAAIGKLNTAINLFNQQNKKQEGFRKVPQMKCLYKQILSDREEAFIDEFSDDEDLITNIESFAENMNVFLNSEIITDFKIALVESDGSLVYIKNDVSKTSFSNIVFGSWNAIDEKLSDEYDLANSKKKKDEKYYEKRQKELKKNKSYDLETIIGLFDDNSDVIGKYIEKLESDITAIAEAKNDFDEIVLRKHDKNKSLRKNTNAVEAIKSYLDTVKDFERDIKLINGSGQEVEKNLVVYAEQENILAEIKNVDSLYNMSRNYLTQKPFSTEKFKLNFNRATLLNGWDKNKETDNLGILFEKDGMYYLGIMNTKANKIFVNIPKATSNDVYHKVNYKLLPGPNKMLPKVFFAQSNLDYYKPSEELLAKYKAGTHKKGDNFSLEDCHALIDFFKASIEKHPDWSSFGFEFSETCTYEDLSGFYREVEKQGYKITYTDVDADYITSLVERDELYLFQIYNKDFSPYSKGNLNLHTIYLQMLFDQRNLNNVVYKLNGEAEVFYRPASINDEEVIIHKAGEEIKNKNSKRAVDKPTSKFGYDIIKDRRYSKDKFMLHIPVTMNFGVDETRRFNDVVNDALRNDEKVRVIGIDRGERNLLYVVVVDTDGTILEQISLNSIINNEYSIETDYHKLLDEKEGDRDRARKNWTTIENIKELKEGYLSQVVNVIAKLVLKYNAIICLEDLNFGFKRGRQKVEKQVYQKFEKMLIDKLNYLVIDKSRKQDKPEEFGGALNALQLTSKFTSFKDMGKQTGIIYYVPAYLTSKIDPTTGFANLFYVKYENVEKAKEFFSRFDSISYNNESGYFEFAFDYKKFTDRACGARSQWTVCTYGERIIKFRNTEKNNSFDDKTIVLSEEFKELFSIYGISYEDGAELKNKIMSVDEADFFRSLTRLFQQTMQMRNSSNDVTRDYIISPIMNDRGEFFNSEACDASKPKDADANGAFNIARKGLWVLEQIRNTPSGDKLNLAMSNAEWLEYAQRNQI
As to the kind of experiment: cell_activity; PAM TTTC; (T)TTN; T7EI. Particulars: tags: HA (2A-eGFP vector). The protocol: GFP-positive cells were sorted by FACS, lysed with Buffer L+ 1/100V Protease K (Biotool) at 55° C. for 30 min, inactivated at 95° C. for 5 min, and directly used for PCR detection. Appropriate primers were designed near the Cpf1 targeting site, and the amplified product was purified using DNA Clean & Concentrator™-5 kit (ZYMO Research). 200 ng of purified PCR product was added into 1 uL of NEBuffer2 (NEB) and diluted to 10 uL with ddH₂O. Then, heterodimers were formed by re-annealing according to the previously reported method (Li, W., et al., Simultaneous generation and germline transmission of multiple gene mutations in rat using CRISPR-Cas systems. Nat Biotechnol, 2013. 31(8): p. 684-6). The reannealed product was added with 0.3 uL of T7EI endnucelease and 1/10 V NEBuffer2 (NEB), and digested at 37° C. for 1 h 30 min. Genotype analysis was performed by 3% TAE-Gel electrophoresis. Indels were calculated according to the method reported in the previous article (Cong, L., et al., Multiplex genome engineering using CRISPR/Cas systems. Science, 2013. 339(6121): p. 819-23).
The cells were transfected with Cpf1, crRNA31, and crRNA2 plasmids, and it was confirmed by PCR and T7EI analysis that crRNA31 can increase the editing efficiency of five Cpf1s of ArCpf1, BsCpf1, HkCpf1, PrCpf1, and PxCpf1 at the site MeCP2-4 by two folds (FIG. 13B).

B1: crRNA31 MeCP2 site 4 ; Mouse MeCP2 site 4 (ssRNA ; dsDNA)
RNA: AUUUCUACUAUGGUAGAUGUGUCCAACCUUCAGGCAAGGUG
DNA 1: TTTCGTGTCCAACCTTCAGGCAAGGTG
DNA 2: CACCTTGCCTGAAGGTTGGACACGAAA
Regarding B1, the editing efficiency is about 2 fold vs crRNA2.
